{"source": "the nanobody polyreactivity screen of Harvey et al. (2022)"}
{"assay": "yeast display, Sf9 membrane polyspecificity reagent, FACS + sequencing; frameworks hold sequencing errors", "outline": "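Galactose induction of a Saccharomyces cerevisiae BJ5465 synthetic nanobody display library ran 36–48 hours. The cells were then stained for 1 hour at 4 °C with 10% biotinylated, detergent-solubilized Sf9 membrane reagent, pulled down on streptavidin microbeads and FACS-sorted into low and high (top ~1%) gates on expression and reagent-binding fluorescence. Labels for polyreactivity follow the gate of origin.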"}
{"sequence": "QVQLVESGGGLVQAGGSLRLSCAASGYTFRGYAMGWYRQAPGKEREFVAAINWSDGSTYYADSVKGRFTISRDNAKNTVYLQMNSLKPEDTAVYYCNADQYYRVPDNYWGQGTLVTVSS", "polyreactivity (PSR sort gate)": "low polyreactivity"}
{"sequence": "QVQLVESGGGLVQAGGSLRLSCAASGYTFRGYAMGWYRQAPGKEREFVAAINWSDGSTYYADSVKGRFTISRDNAKNTVYLQMNSLKPEDTAVYYCNADQYYRVPDNYWGQGTQVTVSS", "polyreactivity (PSR sort gate)": "low polyreactivity"}
{"sequence": "QVQLVESGGGLVQAGGSLRLSCAASGYTFRNNAMGWYRQAPGKEREFVAAISRSGARTYYADSVKGRFTISRDNAKNTVYLQMNSLKPEDTAVYYCAARESFEYDSWGQGTQVTVSS", "polyreactivity (PSR sort gate)": "high polyreactivity"}
{"sequence": "QVQLVESGGGLVQAGGSLRLSCAASGYTFRQYTIGWYRPAPGKERELVDAISRSGGSTYYADSVKGRFTISRDNAKNTVFLQMNSLKPEDTAVYYCNAEGYGRTDGFGYDYWGQGTQVTVSS", "polyreactivity (PSR sort gate)": "high polyreactivity"}
{"sequence": "QVQLVESGGGLVQAGGSLRLSCAASGYTFRYYAMGWYRQAPGKERELVAAISRSGGSTYYADSVKGRFTISRDNAKNTVSLQMNSLKPEDTAVYYCAVALARPYEDYDYWGQGTQVTVSS", "polyreactivity (PSR sort gate)": "high polyreactivity"}
{"sequence": "QVQLVESGGGLVQAGGSLRLSCAASGYTFRYYVMGWYRQAPGKERELDAAISQRGGSTYYADSVKGRFTISRDNAKNTVYLQMNSLKPEDTAVYYCAASYSTYASRGYGYWGQGTQVTVSS", "polyreactivity (PSR sort gate)": "high polyreactivity"}
{"sequence": "QVQLVESGGGLVQAGGSLRLSCAASGYTFSDNAIGWYRQAPGKERELVAAITSGVSTYYADSVKGRFTISRDNAKNTVYLQMNSLKPEDTAVYYCAKDVAVYADLYQGAPYGYWGQGTQVTVSS", "polyreactivity (PSR sort gate)": "low polyreactivity"}
{"sequence": "QVQLVESGGGLVQAGGSLRLSCAASGYTFSHYDMGWYRQAPGKERELVAGITWSGGSTYYADSVKGRFTISRDNAKNTVYLQMNSLIPEDTSVYYCAAKYYWYYSYSGIPLFDYWGQGTQVTVSS", "polyreactivity (PSR sort gate)": "low polyreactivity"}
{"sequence": "QVQLVESGGGLVQAGGSLRLSCAASGYTFSNNAMGWYRQAPGKERELVAAISRSTGSTYYADSVKGRFTISRDYAKNTVYLQMNSLKPEDTAVYYCAVYRHGYGYNYWGQGTQVTVSS", "polyreactivity (PSR sort gate)": "high polyreactivity"}
{"sequence": "QVQLVESGGGLVQAGGSLRLSCAASGYTFSQNAMGWYRQAPGKEREVVAGITTRGTTTYYADSVKGRFTISRDNAKNTVYLQMNSLKPEDTPVYYCAADNSYTDNYWGQGTQVTVSS", "polyreactivity (PSR sort gate)": "low polyreactivity"}
{"sequence": "QVQLVESGGGLVQAGGSLRLSCAASGYTFSYYAMGWYRQAPGKERELVAAITSTGSTYYADSVKGRFTISRDNAKNTDYFQMNSLKPEDTEVYYCNVDVATVGPVDYWGQGTQVTVSS", "polyreactivity (PSR sort gate)": "low polyreactivity"}
{"sequence": "QVQLVESGGGLVQAGGSLRLSCAASGYTFTGNAMGWYRQAPGKERELVARITSVGRTYYADSVKGRFTISRDNAKNTVYLQMNSLKPEDTAVYYCAAQPYRYRYWPRVGGYDYWGQGTQVTVTS", "polyreactivity (PSR sort gate)": "high polyreactivity"}
{"sequence": "QVQLVESGGGLVQAGGSLRLSCAASGYTFTINAMGWYRQAPGKERELVAAISWNGGRTYYADAVKGRFTISRDNAKNTVYLQMNSLKPEDTAVCYCNADTYAAGDYWGQGTQVTVSS", "polyreactivity (PSR sort gate)": "high polyreactivity"}
{"sequence": "QVQLVESGGGLVQAGGSLRLSCAASGYTFTTYAMGWYRQAPGKEREFVASIRWRGGNTYYADSVKGRFTISRDNAKNTVYLQMNSQKREDTAVYYCARRVDYISSKYGYWGQGTQVTVSS", "polyreactivity (PSR sort gate)": "high polyreactivity"}
{"sequence": "QVQLVESGGGLVQAGGSLRLSCAASGYTFVDNAMGWYRQAPGKERELVAAINWDGASTYADSVKGRFTISRDNAKNTVYLQMNSLKPEDTAVYYCTASGKDIFNYVYQGYDYWGQGTQVTVSS", "polyreactivity (PSR sort gate)": "low polyreactivity"}
{"sequence": "QVQLVESGGGLVQAGGSLRLSCAASGYTFVIYAMGSYRQAPGKERELVAAITTIGGRTYYADSVKGRFTISRDNAKNTVYLQMNSLKPEDTAVYYCAADIRSNRLYDGGYWGLGTQVTVSS", "polyreactivity (PSR sort gate)": "low polyreactivity"}
{"sequence": "QVQLVESGGGLVQAGGSLRLSCAASGYTFVIYAMGWYRQAPGKERELVAAITTIGGRTYYADSVKGRFTISRDNAKNTVYLQMNSLKPEDTAVYYCAADIRSNRLYDGGYWGQGTQVTVSS", "polyreactivity (PSR sort gate)": "low polyreactivity"}
{"sequence": "QVQLVESGGGLVQAGGSLRLSCAASGYTFWDYTMGWYRQAPGKEREFVAAINWSGGSTYYADSVKGRFTISRDNAKNTVYLQMNSLKPEDTAVYYCAARRGGRRGYDYWGQGTQVTVSS", "polyreactivity (PSR sort gate)": "high polyreactivity"}
{"sequence": "QVQLVESGGGLVQAGGSLRLSCAASGYTFWWYAMGWSRQAPGKERELVAAISIGGSTKYADSVKGRFTISRDNAKNTVYLQMNSLKPEDTAVYYCAAEVSYHYVPYGYWGQGTQVTVSS", "polyreactivity (PSR sort gate)": "low polyreactivity"}
{"sequence": "QVQLVESGGGLVQAGGSLRLSCAASGYTFYFYAMGWSRQAPGKEREFVAAIRSSGGRTYYADSVKGRFTISRDNAKNNVYLQMNSLKPEDTAVYYCAAAGYYYSVDGAGPRYDYWGQGTQVTVSS", "polyreactivity (PSR sort gate)": "low polyreactivity"}
{"sequence": "QVQLVESGGGLVQAGGSLRLSCAASGYTFYINTMGWYRQAPGKEREFVAAITWSGGSTYYADSVKGRFTISRDNAKNTVYLQMNSLIPEDTAVYYCAADLYVGDMDYWGQGTQVTVSS", "polyreactivity (PSR sort gate)": "low polyreactivity"}
{"sequence": "QVQLVESGGGLVQAGGSLRLSCAASGYTFYLYAMGWYRQAPGKERELVAAISTNGGRTYYADSVKGRFTISRDNAKNTVYLQLNSLKPEDTAVYYCAVRSRGTAPQYYYWGQGTQVTVSS", "polyreactivity (PSR sort gate)": "high polyreactivity"}
{"sequence": "QVQLVESGGGLVQAGGSLRLSCAASGYTFYRYAMGWYRQAPGKERELVASITRSGGSTYYADSVKGRFTISRDNAKNTVYLQMNSLKPEDTAVYYCAAEYEFGHSSTPMDYWGQGTQVTVSS", "polyreactivity (PSR sort gate)": "high polyreactivity"}
{"sequence": "QVQLVESGGGLVQAGGSLRLSCAASGYTFYSNAMGWYRQAPGKERELVAVISRGGGTYYADSVKGRFTISRDNAKNTVYLQMNSLKPEDTAVYYCAASTFTYHWRYDYWGQGTEVTVSS", "polyreactivity (PSR sort gate)": "low polyreactivity"}
{"sequence": "QVQLVESGGGLVQAGGSLRLSCAASGYTFYVYAMGWYRQAPGKERELVAAIRSGGTTYYADSVKGRFTISRDNAKYTVYLQMNSLKPEDTAVYYCAADVQDRYHRAWYDYWGQGTQVTVSS", "polyreactivity (PSR sort gate)": "low polyreactivity"}
{"sequence": "QVQLVESGGGLVQAGGSLRLSCAASGYTFYYYAMGWYRQAPGKERELVAAISWSGGSTYYADSVKGRVTISRDNAKNTVYLQMNSLKPEDTAVYYCAAGVDLYYDLYDYEYWGQGTQVTVSS", "polyreactivity (PSR sort gate)": "low polyreactivity"}
{"sequence": "QVQLVESGGGLVQAGGSLRLSCAASGYTFYYYAMGWYRQAPGKERELVAGISGRGGSTYYADSVKGRFTISRDNAKNTVYLQMNSLKPEDTAVYYCAATSPRAGTRRYEYWGQGTQVTVSS", "polyreactivity (PSR sort gate)": "high polyreactivity"}
{"sequence": "QVQLVESGGGLVQAGGSLRLSCAASGYTIGIYAMGWYRQAPGKERELVAAISFSDGTTYYADSVKGRFTISRDNAKNTVYLQMNSLKPEDTAVYYCAAAAGGTVVGEGDYWGQGTQVTVSS", "polyreactivity (PSR sort gate)": "low polyreactivity"}
{"sequence": "QVQLVESGGGLVQAGGSLRLSCAASGYTILIYAKGWYRQAPGKERELVASISRSGGSTYYADSVKGRFTISRDNAKNTVYLQMNSLKTEDTAVYYCNADFGYDSVVEYDYWGQGTQVTVSS", "polyreactivity (PSR sort gate)": "low polyreactivity"}
{"sequence": "QVQLVESGGGLVQAGGSLRLSCAASGYTILTNAMGWYRQAPGKERELVADITSSGGSTYYADSVKGRFTISRDNAKNTVYLQMNSLKPEDTAVYYCAKRWYRNRYGYWGQGTQVTVSS", "polyreactivity (PSR sort gate)": "high polyreactivity"}
{"sequence": "QVQLVESGGGLVQAGGSLRLSCAASGYTIYQYAMGWYRQAPRKERELVAAISSDASTSYADSVKGRFTISRDNAKNTVYLQMNSLKPEDTAVYYCAADPGPYYDWGYDYWGQGTQVTVSS", "polyreactivity (PSR sort gate)": "low polyreactivity"}
{"sequence": "QVQLVESGGGLVQAGGSLRLSCAASGYTIYYYAMGWYRQAPGKERELVAVITSRGTRTYYADSVQGRFTISRDNAKNTVYLQMNSLKPEDTAVYYCNKARGVAYDWGQGTQVTVSS", "polyreactivity (PSR sort gate)": "high polyreactivity"}
{"sequence": "QVQLVESGGGLVQAGGSLRLSCAASGYTLGDYAMGWYRQAPGKERELVAAISSGGITSYADSVKGRFTISRDNAKNTVYLQMNSLKPEDTAVYYCNAAIVGFTRAYQYDYWGQGTQVTVSS", "polyreactivity (PSR sort gate)": "high polyreactivity"}
{"sequence": "QVQLVESGGGLVQAGGSLRLSCAASGYTLGDYSMGWYRQAPGKERELVAVITRNGGRTYYSDSVKGRFTISRDKAKNTVYLQMNSLKPEDTAVYYCNRDTSIRHYNYWGQGTQVTVSS", "polyreactivity (PSR sort gate)": "high polyreactivity"}
{"sequence": "QVQLVESGGGLVQAGGSLRLSCAASGYTLGYYAMGWYRQAPGKERELVASITERGGSTYYADSVKGRFTISRDNAKNTVYLQMNSLKPEDTAVYYCAADWDPSWWLFPTSSYDYWGQGTQVTVSS", "polyreactivity (PSR sort gate)": "low polyreactivity"}
{"sequence": "QVQLVESGGGLVQAGGSLRLSCAASGYTLRIYAMGWYRQAPGKEREMVAAISRSGGRTFYADSVKGRFTISRDNAKNTVYLQMNSLKPEDTAVYYCAADPRSYDTGRMDYWGQGTQVTVSS", "polyreactivity (PSR sort gate)": "high polyreactivity"}
{"sequence": "QVQLVESGGGLVQAGGSLRLSCAASGYTLYQYAMGWYRPAPVKERELVAAISRRGGSTYYADSVKGRFTISRDNAKNTVYLLMNSLKPEDTAVYYCNNANLYRFWEMDYWGQGTQVSVSS", "polyreactivity (PSR sort gate)": "high polyreactivity"}
{"sequence": "QVQLVESGGGLVQAGGSLRLSCAASRFIFRRNAMGWYRQAPGKERELVAAITLSGGSTYYADSVKGRFTISRDNAKNTVYLQMKSLKPEDTAFYFCAARPGYYTRYDYWGQGTQVTVSS", "polyreactivity (PSR sort gate)": "low polyreactivity"}
{"sequence": "QVQLVESGGGLVQAGGSLRLSCAASRFIFSVYTMGSYIQAPGKERELVAAISSGPSTTYADSVKGRFTISRDNAKNTVYLQMNSLKPEDTAVYYCARRDGTTQALFGYDYWGLGTQVTVSS", "polyreactivity (PSR sort gate)": "low polyreactivity"}
{"sequence": "QVQLVESGGGLVQAGGSLRLSCAASRFTIIPYDMGRYRQAPGKERELVATISRGGSTNYADSVKGRFTISRENAKNTVYLQMNSLKPEDTAVYYCAAEYKVVFSQPYCEYDYWGQGTQVTVSS", "polyreactivity (PSR sort gate)": "low polyreactivity"}
{"sequence": "QVQLVESGGGLVQAGGSLRLSCAASRLTFSYYAMGWYRQAPGKERELVAAISERGGSTYYADSVKGRFTISRDNAKNTVYLQMNSLKPEDTAVYYCAADFVYGTRDDSWGQGTQVTVSS", "polyreactivity (PSR sort gate)": "high polyreactivity"}
{"sequence": "QVQLVESGGGLVQAGGSLRLSCAASRNIFDTYVMGWYRQAPGKETELVAANTSDGGTYYADSVKGRFTISRDNAKNTVFFQMNSLKPVDTAVYSCAADTYYYPIHDYWGQGTQVTVSS", "polyreactivity (PSR sort gate)": "low polyreactivity"}
{"sequence": "QVQLVESGGGLVQAGGSLRLSCAASRRIFSQYAMGWSRQAPGKERELVAAITWRGASTYYADSVKGRFTISRDNAKNTVYLQMNSLKPEDTAVYYCAAGYPPGRYYRVRWVGYWGQGTQVTVSS", "polyreactivity (PSR sort gate)": "high polyreactivity"}
